Measured values: patent US20200377556A1 (ABERA BIOSCIENCE, published 2020)

Tests used:
HbpD(Δd1)-SpT [1] = biological target: T1, HbpD(Δd1)-SpT (Escherichia coli, UniProt O88093 53-1377); test: covalent Spy-ligation to S. Typhimurium cells, SDS-PAGE/Coomassie
T1 construct: also called HbpD(Δd1)-SpyTag; Hbp(Δd1)-SpT

HbpD(Δd1)-SpT [2] = biological target: T1, HbpD(Δd1)-SpT; test: SDS-PAGE/Coomassie of S. Typhimurium cells displaying HbpD(Δd1)-SpT incubated with GFPnb-SpC EQ

Binder | binding result (HbpD(Δd1)-SpT [1]) | binding result (HbpD(Δd1)-SpT [2])
GFPnanobody-SpyCatcher (VHH, also called GFPnb-SpC; GFPnanobody-SpC) VHH: QLVESGGALVQPGGSLRLSCAASGFPVNRYSMRWYRQAPGKEREWVAGMSSAGDRSSYEDSVKGRFTISRDDARNTVYLQMNSLKPEDTAVYYCNVNVGFEYWGQGTQVTVSS | binds | 
GFPnanobody-SpC_EQ (VHH, also called GFPnb-SpC EQ; GFPnb fused to SpyCatcher E77Q mutant) VHH: QLVESGGALVQPGGSLRLSCAASGFPVNRYSMRWYRQAPGKEREWVAGMSSAGDRSSYEDSVKGRFTISRDDARNTVYLQMNSLKPEDTAVYYCNVNVGFEYWGQGTQVTVSS |  | no binding (tested: 3 µM)
